In paper PMC4547976:

Columns and labels:
[1] = target: T1, myostatin (MSTN) (UniProt O14793)
T1 sequence: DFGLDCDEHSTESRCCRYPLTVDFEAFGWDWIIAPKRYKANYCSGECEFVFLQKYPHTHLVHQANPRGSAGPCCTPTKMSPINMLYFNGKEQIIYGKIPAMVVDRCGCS

[2] = target: activin A (UniProt P08476)
[3] = target: T2, GDF11 (UniProt O95390)
T2 sequence: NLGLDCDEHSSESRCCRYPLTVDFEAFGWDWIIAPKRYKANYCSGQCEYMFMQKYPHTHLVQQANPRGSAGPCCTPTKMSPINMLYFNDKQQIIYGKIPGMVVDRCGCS

Chain of UniProt P08476 (P08476 311-426): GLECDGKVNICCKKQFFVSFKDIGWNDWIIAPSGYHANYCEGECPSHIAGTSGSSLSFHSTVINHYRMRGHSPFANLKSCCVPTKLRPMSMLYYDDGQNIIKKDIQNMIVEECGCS

Row | IC50 of suppression of 1 nM MSTN activity, pGL3-(CAGA)12 luciferase reporter in HEK293 cells (180-0 nM FST-type protein) [1] [µM] | IC50 of suppression of 1 nM activin A activity, pGL3-(CAGA)12 luciferase reporter in HEK293 cells (180-0 nM FST-type protein) [2] [µM] | IC50 of suppression of 1 nM GDF11 activity, pGL3-(CAGA)12 luciferase reporter in HEK293 cells (180-0 nM FST-type protein) [3] [µM] | IC50 of suppression of 1 nM MSTN activity, pGL3-(CAGA)12 luciferase reporter in HEK293 cells [1] [µM] | IC50 of suppression of 1 nM GDF11 activity, pGL3-(CAGA)12 luciferase reporter in HEK293 cells [3] [µM] | Substance
1 | 0.00201 | 0.00396 | 0.00164 |  |  | MBP-FST288 (chicken follistatin FST288 fused to maltose-binding protein) (natural protein)
2 |  |  |  | 0.00481 | 0.00635 | MBP-FST315 (MBP-fused chicken follistatin FST315) (from UniProt Q90844 29-343) (natural protein)
3 | 0.0689 | 0.0153 | 0.0579 |  |  | MBP-NDFSD1 (chicken follistatin N-terminal domain and FSD1 fused to maltose-binding protein) (domain or fragment)
4 | 0.064 |  | 0.0262 |  |  | MBP-NDFSD1/1 (chicken follistatin N-terminal domain, FSD1 and a second FSD1 fused to maltose-binding protein) (domain or fragment)
5 | 0.0105 | 0.00859 | 0.00356 |  |  | MBP-NDFSD1/2 (chicken follistatin N-terminal domain, FSD1 and FSD2 fused to maltose-binding protein) (domain or fragment)
